According to US20060073517A1:

Target: histone H3 methylated on lysine 9 and phosphorylated on serine 10
Assay: binding graph, method not stated (FIG. 2)

fold drop in binding affinity (against H3 methylated on Lys 9 without phospho-Ser 10): 100 fold
Substance: HP1 (heterochromatin protein 1)
